From a protein production outcome set (Wang et al. 2014) come the findings set out here.

A short description of this series: label from the status in PepcDB records.
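Further: failed if final PepcDB status was selected cloned or expressed and not failed if soluble or beyond.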

For “MIKRDFRKKLTMCLASVMALNLGISVSVKADEGLKNEIKNNDITKDISIYPTPKDMTVGNSEFTLEDSVNIVGGDLADTYAFELLKNMLTEFGIKINESEIEGATTIYIGESDDNIEEMENTLEEMNVDTSSISKDEGYVLVTDENIEGNKIVIRGNDETGTFYGVKSLKQLIKKEDNKVILDEVVIKDEPSFKMRAVVEGFYGTPWSQEERLDQIKMYGEYKMNAYIYAPKSDPYHREKWREPYPASELDRMKELIKTANENKVDFVFAISPGLDIKFEGEEGEADFKALINKAETLYDMGVRSFAILWDDIENRSGVQQAEVLNRFNKEFIKNKEGVKPLITVPVEYWGSSMFNGEEVKTYTKEFAETLDKDIEVMWTGNDVIPPNGVSLEDAKKVSNVYNRKMMLWWNYPVNDYKEDKMALGPIYDLDRNLDEDVSGFIVNPMRFSDASKISTLTGADYGWNSISYEAEKSWDKAIEIIAGEMKEEFKIFANHSTRLDTGRPDSPEIKNTIDSLWEKWEAGSDISLELSNLQNEFSKMVQVPNKLRSNLENKALLNQLDSHLSKFEIYGNAGLKSIEILQDILNKDMSEFWSDNFEGIKLLRNLDGIKATIANNVVDPFIRKVHEVGNEYFNKETTVLEEKEYSYTSIGNIVDHKYSEWFISEETHVPNYMFDDKDNTGFWSAAPVQKDEFIGFDLGEAEEIKDIYLLMGRNNNDTDVLTNGVIEYSLDGENWTELEVNKGERELLVETGIKARFIRYRALSDSENKLYVRDFKVNTGKSKEKLIGDVEVKDSNINKSSEGENEIISASNINKISFEEGDSIGLAINDVKNVIGFEVLGDVESNKFVLESSFDNIEWEEVCNGTSFKDETPLVGKFFRIRAKEKTEANINEIKISLEGYSKGIVSTNRRISSNANIHPDFVADNDYGTSFVCSDTIKKGDFVQLDLGVEKKIRDISLVQGPGGDYMDGDIEYSLDGENWIKLGVVEGTDTLIKDLDVKARYVRVISTGYKDRWSRVREFTVNKTVKEFETKATSEGTYIDRSENIRDNNLNSAYIPEGEIKSGDYLLRRIFNERLVSKVTVAQSTDNLSGAKVIGKTVNGETLDLGVLDKGLNELVLKNPRQLVSVKLVWEKDAGKVEIFEVKPTFVSLDYIIEDIKNEIQRGKDVLVEHKDKENEERTQLEEALKNIENLLNNKASDDEIVRAYEDLTNKINNFIDSEPNKEEENKPSKPEGGENGSEGEGDKEDSGDKNENEDNKDENGNLPNTGSPLGAGELMLVGAALATLGGVTIKKKK”, the protein production result is reported as “failed”.
Then “MIKSFRHKGLKKFFESGSTAGIQPAHKNRLARQLHQLNVASCPDDMNLPGWGLHLLQGKNPKKQDVDGHYSISVNGNWRLTFYFDHGDAVLVDYQDYH”, with “failed”; and “MIKSKGDVNILLNFRHNINGEDLIIAVAQDHETGEVLMVAYMNREALRRTLETGTAHYWSTSRGKLWLKGESSGHVQRVKDVLVDCDGDAVVLKVEQEGGACHTGYRSCFYRSIDGDELKVREDAVKVFDPEEIYGDG”, with “not failed”; and “MIKSTNIQAIGSGIMHQINNVYSLTPLSLPMELTPSCNEFYLKTWSEWEKNGTPGEQRNIAFNRLKICLQNQEAELNLSELDLKTLPDLPPQITTLEIRKNLLTHLPDLPPMLKVIHAQFNQLESLPALPETLEELNAGDNKIKELPFLPENLTHLRVHNNRLHILPLLPPELKLLVVSGNRLDSIPPFPDKLEGLALANNFIEQLPELPFSMNRAVLMNNNLTTLPESVLRLAQNAFVNVAGNPLSGHT”, with “failed”.
With “MIKTHYAKLALSAFAVSILASCANLGMTGVADGNNSEQTYLGQINYQDQTITKASAKKLNREIDLQRASQLTLWAMPMVGMYQSYNSTIALFDLQEGDAPIIGLHEGYDGVYPFLTANVTTPYTISLVDLSETGPYVVNIPAGSIFGVANNAWQEPIKEIGSGNKETLLFVGPGQEYPKDFDGEVIQSDTNQILYFYRVLGVGAEAEKLKTAVTAYKLSDVANPPQVKFVIYKPKASDADVTIATQPRGMAYWEVVNQYIQNEPMADRDRFFYAWLKDLGIEKGKAFNPTPYQKEILLEGVNTGMAMAQSLAFNKTKKKFSSSLYGSDSGWEGVLAGMDPKIDLDTYSMINERTAYTYEAVTTSAGMIVENPGHGSAYIGSYYDADGNALMGGKNYTLHIEPNPPAANFWSITVYDIKNRLIIRNEIKRSDLSSRSESLVMNSDGSVDLYFGPEAPEGKEGNWIQSNDGESYFMYLRLYGPEQEYFDQTYPMNKIDKTK”, the protein production entry is recorded as “failed”.
Take “MIKVRVASRARAAEGIAQLDLVCAEGRDLPAFEAGAHIDLFLGNGLTRQYSLCSDPAERSFYRIAVLRELTSRGGSAYVHEALTEGATLEISPPRNLFALDETAEEHLLFAGGVGVTPILAMAKRLSALGRAFTFHYCARDRSRAAFLNELSTAPFTSAVRLSFDAEPDTRLDLDVALARPKPGRRLYVCGPGGFMTHVIDGALARGWSGDQIRKEHFAAAPLSAGQDQPFELVIASSGQIVTVAADQTAAQALEAAGVFVPVSCEQGVCGTCLTRVIDGQPDHRDAFQTDEERAANDQFTPCCSRARSPRLVLDL”: the protein production entry was “failed”.
Take “MIKVWLQQGRGLWLALFLGLLSPALVHAEEAPPGLVKVPLDRRVIDLTATLDSATQERMVHKLEALEQRRGAQIAVMLVPNLGQQSIEALSNQLFRAWKLGRKGVDDGILLLVAKNDHKVRIEVGYGLEPVVTDLLAGQIIAQDLTPAFRQGDFAGGIDRALDDLILLVDGGSLPEPAGLAVPLEAYALLLAFVFGSVAGVMLAAGWNWRRVLGGAVVLMAVLVGAVGGHEWLAQLFLVPLCMLIGGATFAGLWQARRVFYGVLGLLLYIGLLTLVSQYLGRLTFLYGLAWPAGVLLVLGGHWLLYWMMRNSWRKSPRGFLWRFAVLLTLVLLMGLGVDAWQAAQRWLRVVPFAYFLSFILFAGGSGFRWSSGGGSSSGGRSSSGGGFSGGGGSSGGGGASGSW”: the protein production result is “failed”.
In the case of “MILHRYLLRESLPVLLLALLFLTAVYLFGFFYAGARWLEGVPLPKILRWLSYHVPGIWVQVFPIALVTTTVLVFGRLAAEGAHFALLSAGIPLGRAALPLVAVGAVLSGLALYLQEYVVPEANNRVRVAWWDEIHTQGAGLFRLKGMQIPIGQGKSLYFQDFDMAAKEMVGVRITAFQGEVGTFLFAERGTWEDKTLTLKDYRYYQVDFAQVPGLETAPDLLAQVRRVFRVVSQGKTLEVTSDLSRARAIADYADTFSFGQDSLSEAWRKLKDPFLPPLEKWRARLELHSKLALPLANLVLVLLAAAMALRYGKSPGLALGMSVVLALAYYGAFFLGRALAGIGALPPELGAWGANLLFLLLGLRALR” it was “failed”; in that of “MILKSSIDRLLQTIDIVEVISSYVNLRKSGSSYMACCPFHEERSASFSVNQIKGFYHCFGCGASGDSIKFVMAFEKLSFVEALEKLAHRFNIVLEYDKGVYYDHKEDYHLLEMVSSLYQEELFNAPFFLNYLQKRGLSLESIKAFKLGLCTNRIDYGIENKGLNKDKLIELGVLGKSDNDQKTYLRFLDRIMFPIYSPSAQVVGFGGRTLKEKAAKYINSPQSKLFDKSSLLYGYHLAKEHIYKQKQVIVTEGYLDVILLHQAGFKNAIATLGTALTPSHLPLLKKGDPEILLSYDGDKAGRNAAYKASLMLAKEQRRGGVILFENNLDPADMIANGQIETLKNWLSHPMAFIEFVLRRMADSYLLDDPLEKDKALKEMLGFLKNFSLLLQSEYKPLIATLLQAPLHVLGIRERVSFQPFYPKTEKPNRPQRFAHVSSAPSLEFLEKLVIRYLLEDRSLLDLAVGYIHSGVFLHKKQEFDALCQEKLDDPKLVALLLDANLPLKKGGFEKELRLLILRYFERQLKEIPKSSLPFSEKMICLKKARQAIMKLKQGELVAI”, “failed”.
In the case of “MILLGVSERSDHSLHITGVDDAHKLVQDFWNTVHDSSTISSVVLSENDVVVRHTGQGDIVSIDIPRASRERIPVYVGPNPLKGSYRRNGDGDYLCDSETVHAMLRDSDLRPLDRKIVGG” it was “failed”; in that of “MILMMENRMPKGIQKTETSEKNIEKVLNAYDKQQHHHQDDLAIQYLPAVRAMAFRLKERLPSSIDFNDLVSIGTEELIKLARRYESALNDSFWGYAKTRVNGAMLDYLRSLDVISRSSRKLIKSIDIEITKHLNEHGKEPSDAYLAQTLGENIEKIKEAKTASDIYALVPIDEQFNAIEQDEITKKIEAEELLEHVQKALNQMSEREQILIQLYYFEELNLSEIKEILGITESRISQIIKEVIKKVRKSLGVDHG”, “failed”.
In the case of “MILPWLILIPFIGGLLCWLGERFGATLPRWIALLTMTLELALGLWLWAHGNYSFAPAPGADPTWAIEFKHVWIERFGINVHLALDGLSLLMILLTGLLGILSVLCSWKEIQRHVGFFHLNLMWILGGVVGVFLALDLFMFFFFWEMMLVPMYFLIALWGHSSADGKKTRIYAATKFFIFTQASGLIMLVAILGLVLVNFNNTGVITFDYAQLLKTKMSTATEYILMLGFFIAFAVKLPVVPFHSWLPDAHAQAPTAGSVDLAGILLKTAAYGLLRFALPLFPNASAEFAPIAMTLGLIGIFYGAFLAFAQTDIKRLIAFSSVSHMGFVLIGIYSGSQQALQGAVIQMLAHGVSAAALFILSGQLYERTHTRDMREMGGLWSRIAYLPAISLFFAAASLGLPGTGNFVGEFLILIGTFVSAPWITAIATSGLVFGSVYSLIMIHRAYFGPSKSDAVLHGMDARELIMVLGLAVLLIYIGVYPQPFLDTSAATMHGVQQWLSTAFTQLASAR”, the protein production result is recorded as “failed”.
Take “MILSMSGVVLLGIVVFLFFRKDGLKGTHACTCALFGFYLSSTAIAPSIKAGGASLASLLGGIRF”: the protein production result is listed as “failed”.
Regarding “MILSMSIFGSIGFFSVQTGLPSFELVFVRCICATIFLALCWLVTGQYKSEQWNKKEIMQILACGVFLVFNWVFLFKAFEVMSITIAISVYHLAPIIVLMIGSIVFKERLTMFAVLSIVICFIGTVLVAGVDGSLSLEKLMSSGMVWALLAALFYAFTTLLGKGIQHTSAYAMTFLQTFLGIFLLLPFVDFGKFQGLTEMNWMMITATGLIHTGFVYYLFFDSLRDLSTRMISVLVFLDPAVAILLDTVFTGFRPTSMQVVGIVLIFVGMAFTFRKTKDEEIAVKEKLYS”, the protein production result is recorded as “failed”.
Consider “MILTILIGAMAAIFIAFNLFEKKEKYGVVSYKTIALSVTYVILAVIVGSFLDNFNTLFQGFHDSLTAAKRY”, for which the protein production entry is given as “failed”.
In the case of “MILTRSSLVKRLTLMIMFAVIAVLVVAGISFNMLSQHHFRMLDEQALSEKLESTRHILSIQAPGTGMEELRPQLRALLGAHQDLTAEILTSEGEVLFSDLKAVQIPDKYKRADKEEMWEWQDESHNFRGITTDVEIQGQPAPGTVMLMLDITSHAHFFETLQRWFAIGLVISALVSAGIGWLVAKSGLRPVEQITKVATSISARSLQERIPLEPVPLELQTLILSFNGMLARLEDAFVRLSNFSADIAHELRTPVSNLLTHTEVVLTRKRDVDAYEENLYSNLEDLKRMSRMIDDMLFLAKSDNGLIIPEQVDIQLHDLVSKLFEYYQLLADDRGIRLTLQGKGVISGDRLMIDRAVSNILSNAVRYTPDGSGISVEIQQAADKVTLTIKNGGATIDPQHINKIFDRFYRADPARREGGPSNAGLGLAITRSIVKAHDGKVWCTSSEGVTAFNFIFPAAHRTAHIRTRH”, the protein production entry is recorded as “failed”.
In the case of “MILTSTEGQEGLPRYFPQVMKMLARMQAGRLDIALPDGRVFRSEGPEPGPVARVDIHDTDVFARLIREGELGFSDAYLEQDWSTPDLRAFMDLVHQGEETVYDGFTGQFLARAYERLRFWLQRNHRKQAKKNISYHYDLGNDFYALWLDETMTYSSALFETGQESLEKAQEAKYASLLDEMGAQPGDHILEIGCGWGGFAEYAARQRGMRVTGLTISQEQFKFARERIEKAGLSDQVHFKLQDYRDETGSYDGIASIEMFEAVGEKYWPVYFDTVRARLKPGKRATLQIITVADRRWEIYRNGVDFIQKYIFPGGMLPAPGILREQVARAGLEFVQSREFGKSYDLTLRRWYETFNDKWDQVAELGFDDRFRRMWNFYLTSCGAAFDTGTCDVTQMTVARPNHS” it was “failed”.
